Experimental data: article PMC4756369 (2016)
Numbering of substitutions follows the chain as printed. Values belong to the binder of their own block, whether it stands above or below them.

Tests used:
[1] = biological target: F-actin (skeletal muscle, phalloidin stabilized) (Oryctolagus cuniculus, UniProt P68135); assay: co-sedimentation
[2] = biological target: F-actin (skeletal muscle) (Oryctolagus cuniculus, UniProt P68135); assay: co-sedimentation

Kd [1]: 0.0755 µM
B1: β-III-spectrin ABD 1-284 (protein)
chain: MSSTLSPTDFDSLEIQGQYSDINNRWDLPDSDWDNDSSSARLFERSRIKALADEREAVQKKTFTKWVNSHLARVTCRVGDLYSDLRDGRNLLRLLEVLSGEILPKPTKGRMRIHCLENVDKALQFLKEQKVHLENMGSHDIVDGNHRLTLGLVWTIILRFQIQDISVETEDNKEKKSAKDALLLWCQMKTAGYPNVNVHNFTTSWRDGLAFNAIVHKHRPDLLDFESLKKCNAHYNLQNAFNLAEKELGLTKPLDPEDVNVDQPDEKSIITYVATYYHYFSKMK

Kd [2]: 75.8 µM
B2: β-III-spectrin ABD 1-284 (protein)
chain: B1 chain with P253L
